Measured values from patent US20150197564A1 (Regeneron, published 2015).

B1: hANGPTL3(17-169)-mFc (Fc fusion)
chain: SRIDQDNSSFDSLSPEPKSRFAMLDDVKILANGLLQLGHGLKDFVHKTKGQINDIFQKLNIFDQSFYDLSLQTSEIKEEEKELRRTTYKLQVKNEEVKNMSLELNSKLESLLEEKILLQQKVKYLEEQLTNLIQNQPETPEHPEVTSLKTFVEEPRGPTIKPCPPCKCPAPNLLGGPSVFIFPPKIKDVLMISLSPIVTCVVVDVSEDDPDVQISWFVNNVEVHTAQTQTHREDYNSTLRVVSALPIQHQDWMSGKEFKCKVNNKDLPAPIERTISKPKGSVRAPQVYVLPPPEEEMTKKQVTLTCMVTDFMPEDIYVEWTNNGKTELNYKNTEPVLDSDGSYFMYSKLRVEKKNWVERNSYSCSVVHEGLHNHHTTKSFSRTPGK
B2: H1M896N (antibody, V domains shown)
VH: EVQLLESGGGLVQPGGSLRLSCAASGFTFSTYAMSWVRQAPGKGLEGVSGISGTGYRTYYADSVKGRFTISRDNSKNSLYLQMNSLRAEDTAVYYCAKDRGLLWFGELTYWGQGTLVTVSS
VL: DIQMTQSPSTLSASVGDRVTITCRASQSINNWLAWYQQKPGKAPNLLIYKASSLESGVPSRFSGSGSGTEFTLTISSLQPDDFATYYCQQYNDYWTFGQGTKVEIK
B3: mANGPTL3(17-240)-His (other)
chain: GAPSRVDPDLSSFDSAPSEPKSRFAMLDDVKILANGLLQLGHGLKDFVHKTKGQINDIFQKLNIFDQSFYDLSLRTNEIKEEEKELRRTTSTLQVKNEEVKNMSVELNSKLESLLEEKTALQHKVRALEEQLTNLILSPAGAQEHPEVTSLKSFVEQQDNSIRELLQSVEEQYKQLSQQHMQIKEIEKQLRKTGIQEPSENSLSSKSRAPRTTPPLQLNETENTEQDASHHHHHH

Key:
[1] = target: T1, bovine LPL (bovine, UniProt P11151 29-478, limits assumed); assay: cell-based or functional assay
T1 sequence (looked up): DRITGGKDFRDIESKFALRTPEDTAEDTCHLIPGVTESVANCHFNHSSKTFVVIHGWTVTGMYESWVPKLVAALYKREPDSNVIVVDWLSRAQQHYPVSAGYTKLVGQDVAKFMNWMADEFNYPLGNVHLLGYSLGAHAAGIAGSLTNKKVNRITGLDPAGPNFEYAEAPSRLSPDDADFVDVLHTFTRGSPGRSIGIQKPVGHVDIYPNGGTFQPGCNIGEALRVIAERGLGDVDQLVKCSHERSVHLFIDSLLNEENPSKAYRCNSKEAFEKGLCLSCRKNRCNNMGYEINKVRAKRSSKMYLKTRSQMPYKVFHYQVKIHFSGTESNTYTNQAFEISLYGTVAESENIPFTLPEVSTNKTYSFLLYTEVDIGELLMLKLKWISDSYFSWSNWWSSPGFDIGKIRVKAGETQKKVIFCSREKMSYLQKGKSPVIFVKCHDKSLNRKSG

[2] = target: T1, bovine LPL; assay: cell-based or functional assay; remark: listed apart in the source
[3] = target: T2, hANGPTL3(17-460)-His (human, UniProt Q9Y5C1 17-460); assay: SPR Biacore, antigen captured, 37C, pH 7.4, HBS-EP
T2 construct: Bought protein (R&D Systems); also called full-length mature human ANGPTL3 with a C-terminal decahistidine tag; Human ANGPTL3 (17-460)-His
T2 sequence: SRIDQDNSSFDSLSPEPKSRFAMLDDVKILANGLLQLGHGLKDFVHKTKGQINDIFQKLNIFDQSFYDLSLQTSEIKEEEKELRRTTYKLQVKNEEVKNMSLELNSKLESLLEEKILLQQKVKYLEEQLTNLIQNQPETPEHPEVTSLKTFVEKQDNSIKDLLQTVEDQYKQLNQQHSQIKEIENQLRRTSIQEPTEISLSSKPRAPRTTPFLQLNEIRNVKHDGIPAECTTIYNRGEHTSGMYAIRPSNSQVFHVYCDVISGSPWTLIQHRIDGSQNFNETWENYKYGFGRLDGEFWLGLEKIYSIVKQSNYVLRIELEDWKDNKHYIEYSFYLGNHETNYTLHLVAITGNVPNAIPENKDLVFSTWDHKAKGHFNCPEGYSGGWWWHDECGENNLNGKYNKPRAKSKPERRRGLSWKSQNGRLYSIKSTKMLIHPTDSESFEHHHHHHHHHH
Procedure: (§1) All kinetic binding experiments were performed at 25° C. or 37° C. on a BIACORE™ T200 label-free molecular interaction instrument (GE Healthcare) using a CM5 sensor chip. Briefly, an antigen capture surface was generated by covalently coupling either an anti-mouse IgG-specific antibody (anti-mFc; GE Healthcare; catalog #BR-1008-38) or an anti-pentahistidine-specific antibody (Qiagen; catalog #34660) to the surface of a CM5 sensor chip using a standard amine coupling method.

[4] = target: T3, mANGPTL3(17-455)-His (Mus musculus, UniProt Q9R182 17-455); assay: SPR Biacore, antigen captured, 37C, pH 7.4, HBS-EP
T3 construct: Bought protein (R&D Systems); also called full-length mature ANGPTL3 from Mus musculus with a C-terminal decahistidine tag
T3 sequence: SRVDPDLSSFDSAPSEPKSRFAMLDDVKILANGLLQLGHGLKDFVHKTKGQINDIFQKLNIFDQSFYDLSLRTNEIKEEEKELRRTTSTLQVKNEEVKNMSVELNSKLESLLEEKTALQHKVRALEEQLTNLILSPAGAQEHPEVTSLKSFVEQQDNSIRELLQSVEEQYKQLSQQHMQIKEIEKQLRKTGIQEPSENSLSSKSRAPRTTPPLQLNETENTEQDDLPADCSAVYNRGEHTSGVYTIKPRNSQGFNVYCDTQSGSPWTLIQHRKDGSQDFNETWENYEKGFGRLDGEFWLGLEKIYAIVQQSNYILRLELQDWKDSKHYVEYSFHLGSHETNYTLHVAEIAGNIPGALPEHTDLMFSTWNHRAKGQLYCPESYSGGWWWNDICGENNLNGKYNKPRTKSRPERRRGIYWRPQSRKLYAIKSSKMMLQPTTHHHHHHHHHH
Procedure: as §1

[5] = target: T2, hANGPTL3(17-460)-His; assay: Biacore cross-competition, 25C; first antibody at 25 µg/ml on captured antigen
Procedure: (§2) Cross competition experiments were performed at 25° C. on a Biacore essentially as described in Example 3 above. […] The results are shown in Table 8 with binding response for the first antibody (mAb1), followed by binding response of the second antibody (mAb2) on the ANGPTL3 surface pre-loaded with the first antibody. Numbers in bold indicate that the antibody pairs are able to bind to hANGPTL3 simultaneously. Numbers in italics indicate that that the antibody pairs are able to bind to hANGPTL3 simultaneously when added sequentially in one direction but not the other. Brackets indicate self-self competition.

[6] = target: T2, hANGPTL3(17-460)-His; assay: Biacore cross-competition; second antibody after pre-loading with Negative Control
Procedure: as §2

[7] = target: T2, hANGPTL3(17-460)-His; assay: Biacore cross-competition; second antibody after pre-loading with competitor H4H1250P
Procedure: as §2

[8] = target: T2, hANGPTL3(17-460)-His; assay: Biacore cross-competition; second antibody after pre-loading with competitor H4H1279P
Procedure: as §2

[9] = target: T2, hANGPTL3(17-460)-His; assay: Biacore cross-competition; second antibody after pre-loading with competitor H4H1292P
Procedure: as §2

Binder | IC50 for blocking LPL [1] [nM] | EC50 (nM), inhibition of LPL activity [2] [nM] | Kd [3] [nM] | koff [3] [s⁻¹] | kon [3] [M⁻¹ s⁻¹] | t1/2 [3] [min] | Kd [4] [nM] | koff [4] [s⁻¹] | kon [4] [M⁻¹ s⁻¹] | t1/2 [4] [min] | mAb1 binding response (RU) [5] [RU] | mAb2 binding response (RU) [6] [RU] | mAb2 binding response (RU) [7] [RU] | mAb2 binding response (RU) [8] [RU] | mAb2 binding response (RU) [9] [RU]
B1 | 47 | 16 |  |  |  |  |  |  |  |  |  |  |  |  | 
B2 |  |  | 0.158 | 0.00053 | 3.36e+06 | 22 | 0.682 | 0.00247 | 3.62e+06 | 5 | 171 | 149 | -4 | 186 | 182
B3 | 341 | 199 |  |  |  |  |  |  |  |  |  |  |  |  | 
